Measurements as given in patent publication US20110243934A1.

Molecular target: EphA3 antigen (UniProt P29320)
Test: ELISA

UniProt P29320, sequence (P29320 21-541 limits assumed): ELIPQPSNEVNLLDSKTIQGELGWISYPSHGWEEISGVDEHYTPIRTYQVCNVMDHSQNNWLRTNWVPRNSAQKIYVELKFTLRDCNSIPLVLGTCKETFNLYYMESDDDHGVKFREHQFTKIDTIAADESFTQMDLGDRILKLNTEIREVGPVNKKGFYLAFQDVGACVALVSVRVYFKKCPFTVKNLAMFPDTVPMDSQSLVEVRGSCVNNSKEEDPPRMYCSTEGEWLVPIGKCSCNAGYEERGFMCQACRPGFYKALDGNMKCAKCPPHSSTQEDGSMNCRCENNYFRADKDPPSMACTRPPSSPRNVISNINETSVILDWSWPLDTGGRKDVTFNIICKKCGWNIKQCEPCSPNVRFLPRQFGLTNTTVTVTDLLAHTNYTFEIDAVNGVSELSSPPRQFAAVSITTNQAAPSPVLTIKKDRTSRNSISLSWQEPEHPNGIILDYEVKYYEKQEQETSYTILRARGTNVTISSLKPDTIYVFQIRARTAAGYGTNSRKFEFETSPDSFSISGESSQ

AFFINITY: 2.5 nM
Substance: monoclonal antibody IIIA4
